{"source": "patent US20070122422A1", "about": "“Sodium-independent small neutral amino acid transporter transporting L- and D- amino acids” (Japan Science and Technology Corporation, priority 2000, published 2007)", "molecules": {"B1": {"name": "asc-1 of mouse (co-expressed with 4F2hc of mouse) (Mus musculus) (protein)", "chain": "MRRDSDMASHIQQPGGHGNPGPAPSPSPGPGPGPGASERVALKKEIGLVSACTIIIGNIIGSGIFISPKGVLEHSGSVGLALFVWVLGGGVTALGSLCYAELGVAIPKSGGDYAYVTEIFGGLAGFLLLWSAVLIMYPTSLAVISMTFSNYVLQPVFPNCIPPATASRVLSMACLMLLTWVNSSSVRWATRIQVIFTGGKLLALSLIITVGFVQIFQGHFEELRPTNAFAFWMTPSVGHLALAFLQGSFAFSGWNFLNYVTEELVDPRKNLPRAIFISIPLVTFVYTFTNVAYFTAMSPQELLSSNAVAVTFGEKLLGYFSWVMPVSVALSTFGGINGYLFTSSRLCFSGAREGHLPSFLAMIHVRRCTPIPALLVCCGATAVIMLVGDTYTLINYVSFINYLCYGVTILGLLVLRWRRPALHRPIKVNLLVPVVYLVFWAFLLVFSFISEPMVCGVGIIIILTGVPIFFLGVFWRSKPKCVHRFTESMTRWGQELCFVVYPQGSLEEEENGPMGQPSPLPITDKPLKTQ", "notes": "expressed in transfected cells; host or cells: Xenopus oocytes injected with cRNA"}}, "key": {"[1]": {"biological_target": "T1, asc-1 of mouse (co-expressed with 4F2hc of mouse) (Mus musculus, UniProt P63115)", "T1 construct": "expressed in transfected cells; host or cells: Xenopus oocytes injected with cRNA", "T1 sequence (P63115 1-530)": "B1 chain", "T1 sequence (P10852 1-526 partner)": "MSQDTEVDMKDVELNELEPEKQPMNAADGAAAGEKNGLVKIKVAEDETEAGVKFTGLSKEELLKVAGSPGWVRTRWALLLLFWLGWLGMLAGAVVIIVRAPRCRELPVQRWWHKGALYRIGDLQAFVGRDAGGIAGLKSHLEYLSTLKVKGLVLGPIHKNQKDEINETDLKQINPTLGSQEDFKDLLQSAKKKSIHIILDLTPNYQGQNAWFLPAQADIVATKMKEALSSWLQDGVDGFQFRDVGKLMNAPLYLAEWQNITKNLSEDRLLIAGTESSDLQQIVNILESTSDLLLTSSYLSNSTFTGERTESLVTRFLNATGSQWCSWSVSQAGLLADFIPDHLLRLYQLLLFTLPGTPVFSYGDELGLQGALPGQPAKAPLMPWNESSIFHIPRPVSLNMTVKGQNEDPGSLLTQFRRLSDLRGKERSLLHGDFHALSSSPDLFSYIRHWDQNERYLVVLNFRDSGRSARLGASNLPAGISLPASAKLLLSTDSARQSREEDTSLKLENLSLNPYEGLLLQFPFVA", "experiment": "Michaelis-Menten kinetic test of substrate incorporation by Xenopus oocytes co-expressing asc-1 and 4F2hc", "assay_type": "cell-based", "details": "ratio to the Vmax value for alanine (defined as 1.00)", "protocol": "(§1) Into oocytes were injected 12 ng of asc-1 gene cRNA of mouse, 13 ng of 4F2hc gene cRNA of mouse or 12 ng asc-1 gene cRNA of mouse/13 ng of 4F2hc gene cRNA of mouse to express followed by incubating for 3 days. […] Thus, the oocytes were allowed to stand for 30 minutes in a Na^+-free uptake solution [100 mM choline chloride, 2 mM potassium chloride, 1.8 mM calcium chloride, 1 mM magnesium chloride, 5 mM HEPES; pH 7.4] containing ^14C-alanine (100 μM) as a substrate and the rate of the substrate incorporated into the cells was measured by way of counting the radioactivity incorporated thereinto.\nA Michaelis-Menten kinetic test was carried out for a sodium-independent small neutral amino acid transporter asc-1 which transports L- and D-amino acids. By checking the changes in the rate of incorporation of alanine due to the difference in concentration of the alanine substrate, the Michaelis-Menten kinetic test of asc-1 was carried out.\nAn experiment for the incorporation of alanine was carried out according to the method mentioned in the above Example 2(1) using the oocytes into which both asc-1 gene cRNA of mouse and 4F2hc gene cRNA of mouse were injected.\nWith regard to amino acids other than alanine which were used as substrates, a Michaelis-Menten kinetic was carried out as well in the same manner whereupon Km values and Vmax values were calculated. Each Vmax value in Table 1 was shown in terms of the ratio when the Vmax value of alanine was defined as 1.00."}, "[2]": {"biological_target": "T1, asc-1 of mouse (co-expressed with 4F2hc of mouse)", "experiment": "Incorporation of radiolabeled amino acids and analogs by oocytes co-expressing asc-1 and 4F2hc", "assay_type": "cell-based", "details": "summary statement; asc-1 co-existing with 4F2hc", "protocol": "Incorporation of alanine when asc-1 gene cRNA of mouse was solely expressed in oocytes of Xenopus and when asc-1 gene cRNA of mouse and 4F2hc gene cRNA of mouse were expressed in oocytes of Xenopus together was compared.\nas §1\nIn an experiment of incorporation of alanine by oocytes into which both asc-1 gene cRNA and 4F2hc gene cRNA of mouse were injected together, influence of the salt added to the medium was investigated.\nThe experiment of incorporation of alanine was carried out in accordance with the method mentioned in the above Example 2(1) using oocytes into which both asc-1 gene cRNA and 4F2hc gene cRNA of mouse were injected together. When the influence of sodium ion was checked however, a standard uptake solution (where 100 mM choline chloride was substituted with 100 mM sodium chloride) was used in place of the Na^+-free uptake solution as the uptake solution. When the influence of chlorine ion was checked, a gluconic acid uptake solution (where 100 mM sodium chloride was substituted with 100 mM sodium gluconate) was used in place of the standard uptake solution.\nIncorporation by asc-1 was investigated using various amino acids and analogs thereof as substrates. Experiment for incorporation of various amino acids and analogs thereof was carried out according to the method mentioned in the above Example 2(1) using oocytes into which asc-1 gene cRNA of mouse and 4F2hc gene cRNA of mouse were injected together. With regard to the substrates however, various compounds labeled with radioactivity were used in place of ^14C-alanine.\nInfluence of pH was checked in an experiment for incorporation of alanine by oocytes into which both asc-1 gene cRNA and 4F2hc gene cRNA of mouse were injected together. With regard to an experiment for incorporation of alanine, the method according to that mentioned in the above Example 2 (1) was carried out using oocytes into which both asc-1 gene cRNA of mouse and 4F2hc gene cRNA of mouse were injected together."}, "[3]": {"biological_target": "T2, LAT1 of rat (co-expressed with 4F2hc of rat) (Rattus norvegicus, UniProt Q63016, Q506C)", "T2 construct": "expressed in transfected cells; host or cells: oocytes injected with cRNA (per Kanai et al., J. Biol. Chem. 273:23629)", "T2 sequence (Q63016 whole entry Q506C)": "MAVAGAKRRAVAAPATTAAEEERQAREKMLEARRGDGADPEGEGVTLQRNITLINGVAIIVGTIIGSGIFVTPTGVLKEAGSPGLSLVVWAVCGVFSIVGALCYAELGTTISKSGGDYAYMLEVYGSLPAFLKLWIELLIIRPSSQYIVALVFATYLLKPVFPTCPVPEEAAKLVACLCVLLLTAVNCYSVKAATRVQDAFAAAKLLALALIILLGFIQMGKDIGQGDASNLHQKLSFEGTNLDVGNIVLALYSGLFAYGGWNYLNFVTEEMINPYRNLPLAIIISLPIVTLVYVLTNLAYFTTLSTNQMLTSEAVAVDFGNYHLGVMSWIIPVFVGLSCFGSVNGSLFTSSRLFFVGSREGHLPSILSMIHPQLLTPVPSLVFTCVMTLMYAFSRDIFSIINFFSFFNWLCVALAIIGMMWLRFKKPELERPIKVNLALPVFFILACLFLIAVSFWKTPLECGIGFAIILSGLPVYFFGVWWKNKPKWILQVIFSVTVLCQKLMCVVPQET", "T2 sequence (Q794F9 whole entry partner)": "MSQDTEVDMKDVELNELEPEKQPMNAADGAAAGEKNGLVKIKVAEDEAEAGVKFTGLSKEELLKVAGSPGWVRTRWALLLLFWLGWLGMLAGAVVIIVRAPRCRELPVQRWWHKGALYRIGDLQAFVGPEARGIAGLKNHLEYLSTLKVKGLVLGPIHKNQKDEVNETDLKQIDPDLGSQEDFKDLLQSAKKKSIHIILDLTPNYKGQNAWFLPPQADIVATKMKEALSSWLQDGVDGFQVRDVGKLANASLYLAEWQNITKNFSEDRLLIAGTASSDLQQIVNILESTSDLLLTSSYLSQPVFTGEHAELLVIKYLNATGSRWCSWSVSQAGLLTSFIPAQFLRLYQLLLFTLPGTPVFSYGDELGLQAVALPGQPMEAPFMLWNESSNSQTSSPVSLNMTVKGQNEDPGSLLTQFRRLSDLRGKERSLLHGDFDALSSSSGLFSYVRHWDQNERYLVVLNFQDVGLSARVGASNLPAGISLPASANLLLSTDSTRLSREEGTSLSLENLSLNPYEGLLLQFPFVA", "experiment": "Release of injected 14C-leucine from oocytes co-expressing LAT1 and 4F2hc of rat", "assay_type": "cell-based", "details": "leucine 100 μM added or not added outside the cells", "protocol": "Further, ^14C-leucine was similarly injected into oocytes into which LAT1 gene cRNA and 4F2hc gene cRNA of rat were injected together (Kanai et al., J. Biol. Chem., volume 273, page 23629, […]), washed with an ice-cooled Na^+-free uptake solution containing no leucine and transferred to a Na^+-free uptake solution to which leucine (100 μM) was added or not added at room temperature (18° C.-22° C.) whereupon the amount of ^14C-leucine released outside the cells was measured.\nIn the drawing, 0 is the case where, in the release of ^14C-leucine in the oocytes into which water is injected as a control instead of cRNA of rat LAT1 gene and cRNA of rat 4F2hc gene, a Na^+-free uptake solution to which no leucine is added is used; ● is the case where, in the release of ^14C-leucine in the oocytes into which water is injected as a control instead of cRNA of rat LAT1 gene and cRNA of rat 4F2hc gene, a Na^+-free uptake solution to which leucine is added is used; ● is the case where, in the release of ^14C-leucine in the oocytes into which cRNA of rat LAT1 gene and cRNA of rat 4F2hc gene are injected, a Na^+-free uptake solution to which no leucine is added is used; and ▪ is the case where, in the release of ^14C-leucine in the oocytes into which cRNA of rat LAT1 gene and cRNA of rat 4F2hc gene are injected, a Na^+-free uptake solution to which leucine is added is used."}, "[4]": {"substrate": "C[C@H](N)C(=O)O", "experiment": "cells, lysate or membranes", "details": "other: oocytes with mouse asc-1 and 4F2hc cRNA; Na+-free uptake solution; pH 7.4"}, "[5]": {"substrate": "C[C@@H](O)[C@H](N)C(=O)O", "experiment": "cells, lysate or membranes", "details": "other: oocytes with mouse asc-1 and 4F2hc cRNA; Na+-free uptake solution; pH 7.4"}, "[6]": {"substrate": "CSCC[C@H](N)C(=O)O", "experiment": "cells, lysate or membranes", "details": "other: oocytes with mouse asc-1 and 4F2hc cRNA; Na+-free uptake solution; pH 7.4"}, "[7]": {"substrate": "C[C@@H](N)C(=O)O", "experiment": "cells, lysate or membranes", "details": "other: oocytes with mouse asc-1 and 4F2hc cRNA; Na+-free uptake solution; pH 7.4"}, "[8]": {"substrate": "NCCC(=O)O", "experiment": "cells, lysate or membranes", "details": "other: oocytes with mouse asc-1 and 4F2hc cRNA; Na+-free uptake solution; pH 7.4"}, "[9]": {"substrate": "NCC(=O)O", "experiment": "cells, lysate or membranes", "details": "other: oocytes with mouse asc-1 and 4F2hc cRNA; Na+-free uptake solution; pH 7.4"}, "[10]": {"substrate": "N[C@@H](CS)C(=O)O", "experiment": "Michaelis-Menten kinetic test of substrate incorporation by Xenopus oocytes co-expressing asc-1 and 4F2hc", "assay_type": "cell-based", "details": "other: oocytes with mouse asc-1 and 4F2hc cRNA; Na+-free uptake solution; pH 7.4"}, "[11]": {"substrate": "N[C@@H](CO)C(=O)O", "experiment": "Michaelis-Menten kinetic test of substrate incorporation by Xenopus oocytes co-expressing asc-1 and 4F2hc", "assay_type": "cell-based", "details": "other: oocytes with mouse asc-1 and 4F2hc cRNA; Na+-free uptake solution; pH 7.4"}, "[12]": {"substrate": "CC(C)[C@H](N)C(=O)O", "experiment": "Michaelis-Menten kinetic test of substrate incorporation by Xenopus oocytes co-expressing asc-1 and 4F2hc", "assay_type": "cell-based", "details": "other: oocytes with mouse asc-1 and 4F2hc cRNA; Na+-free uptake solution; pH 7.4"}, "[13]": {"substrate": "N[C@@H](Cc1c[nH]cn1)C(=O)O", "experiment": "Michaelis-Menten kinetic test of substrate incorporation by Xenopus oocytes co-expressing asc-1 and 4F2hc", "assay_type": "cell-based", "details": "other: oocytes with mouse asc-1 and 4F2hc cRNA; Na+-free uptake solution; pH 7.4"}, "[14]": {"substrate": "CC(C)C[C@H](N)C(=O)O", "experiment": "Michaelis-Menten kinetic test of substrate incorporation by Xenopus oocytes co-expressing asc-1 and 4F2hc", "assay_type": "cell-based", "details": "other: oocytes with mouse asc-1 and 4F2hc cRNA; Na+-free uptake solution; pH 7.4"}, "[15]": {"substrate": "N[C@H](CO)C(=O)O", "experiment": "Michaelis-Menten kinetic test of substrate incorporation by Xenopus oocytes co-expressing asc-1 and 4F2hc", "assay_type": "cell-based", "details": "other: oocytes with mouse asc-1 and 4F2hc cRNA; Na+-free uptake solution; pH 7.4"}, "[16]": {"substrate": "CC[C@H](C)[C@H](N)C(=O)O", "experiment": "Michaelis-Menten kinetic test of substrate incorporation by Xenopus oocytes co-expressing asc-1 and 4F2hc", "assay_type": "cell-based", "details": "other: oocytes with mouse asc-1 and 4F2hc cRNA; Na+-free uptake solution; pH 7.4"}, "[17]": {"substrate": "CC(C)(N)C(=O)O", "experiment": "Michaelis-Menten kinetic test of substrate incorporation by Xenopus oocytes co-expressing asc-1 and 4F2hc", "assay_type": "cell-based", "details": "other: oocytes with mouse asc-1 and 4F2hc cRNA; Na+-free uptake solution; pH 7.4"}, "[18]": {"substrate": "N[C@@H](Cc1ccccc1)C(=O)O", "experiment": "Michaelis-Menten kinetic test of substrate incorporation by Xenopus oocytes co-expressing asc-1 and 4F2hc", "assay_type": "cell-based", "details": "other: oocytes with mouse asc-1 and 4F2hc cRNA; Na+-free uptake solution; pH 7.4"}}, "data": [{"molecule": "CC(C)C[C@H](N)C(=O)O", "note": "[L-Leucine]", "values": [{"measurement": "Vmax", "setting": "[1]", "result": 0.58}, {"measurement": "transport by asc-1 (affinity in words)", "setting": "[2]", "result": "lowly affinitive"}, {"measurement": "release of 14C-leucine", "setting": "[3]", "result": "observed only when leucine was added"}]}, {"molecule": "B1", "values": [{"measurement": "Km", "setting": "[4]", "result": "23.0 ± 5.1", "unit": "µM"}, {"measurement": "Km", "setting": "[5]", "result": 19.3, "unit": "µM"}, {"measurement": "Km", "setting": "[6]", "result": 139, "unit": "µM"}, {"measurement": "Km", "setting": "[7]", "result": 100, "unit": "µM"}, {"measurement": "Km", "setting": "[8]", "result": 281, "unit": "µM"}, {"measurement": "Km", "setting": "[9]", "result": 7.8, "unit": "µM"}, {"measurement": "Km", "setting": "[10]", "result": 23.7, "unit": "µM"}, {"measurement": "Km", "setting": "[11]", "result": 11.3, "unit": "µM"}, {"measurement": "Km", "setting": "[12]", "result": 112, "unit": "µM"}, {"measurement": "Km", "setting": "[13]", "result": 368, "unit": "µM"}, {"measurement": "Km", "setting": "[14]", "result": 245, "unit": "µM"}, {"measurement": "Km", "setting": "[15]", "result": 52.0, "unit": "µM"}, {"measurement": "Km", "setting": "[16]", "result": 160, "unit": "µM"}, {"measurement": "Km", "setting": "[17]", "result": 22.7, "unit": "µM"}, {"measurement": "Km", "setting": "[18]", "result": 464, "unit": "µM"}]}]}
